Reference: US20210107998A1 (Boehringer Ingelheim, published 2021)

Columns and labels:
Assay in all cases: cell-based or functional assay
[1] = biological target: T1, Recombinant human BAFF trimer (Boehringer Ingelheim Pharmaceuticals, Inc.) (human, UniProt Q9Y275 134-285, limits assumed)
[2] = biological target: Recombinant human BAFF 60mer (Boehringer Ingelheim Pharmaceuticals, Inc.) (human, UniProt Q9Y275 134-285, limits assumed)
[3] = biological target: Recombinant cynomolgus BAFF trimer (Boehringer Ingelheim Pharmaceuticals, Inc.) (cynomolgus, UniProt A0A2K5V2X4 134-285)
[4] = biological target: T1, Recombinant human BAFF trimer …; remark: listed apart in the source
[5] = biological target: membrane-bound human BAFF on fixed CHO-K1 cells (human, UniProt Q9Y275 1-285)

Binder | IC50, NFkB luciferase reporter, human BAFFR-CHO cells [1] [nM] | IC90, NFkB luciferase reporter, human BAFFR-CHO cells [1] [nM] | IC50, NFkB luciferase reporter, human BAFFR-CHO cells [2] [nM] | IC90, NFkB luciferase reporter, human BAFFR-CHO cells [2] [nM] | IC50 Geomean, NFkB luciferase reporter, human BAFFR-CHO cells [3] [nM] | IC90 Geomean, NFkB luciferase reporter, human BAFFR-CHO cells [3] [nM] | IC50 Geomean, NFkB luciferase reporter, human TACI-CHO cells [4] [nM] | IC90 Geomean, NFkB luciferase reporter, human TACI-CHO cells [4] [nM] | IC50, NFkB luciferase reporter, human BAFFR-CHO cells stimulated with fixed human BAFF CHO-K1 cells [5] [nM] | IC90, NFkB luciferase reporter, human BAFFR-CHO cells stimulated with fixed human BAFF CHO-K1 cells [5] [nM]
Compound X (bispecific antibody, human IgG4 S228P, kappa) chain 1: SSELTQDPAVSVALGQTVRVTCQGDSLRSYYASWYQQKPGQAPVLVIYGKNNRPSGIPDRFSGSSSGNTASLTITGAQAEDEADYYCSSRDSSGNHWVFGGGTELTVLGGGSGGGGQVQLVQSGAEVKKPGSSVKVSCKASGYTFTDQTIHWMRQAPGQGLEWIGYIYPRDDSPKYNENFKGKVTITADKSTSTAYMELSSLRSEDTAVYYCAIPDRSGYAWFIYWGQGTLVTVSSLGGGSGASTKGPSVFPLAPCSRSTSESTAALGCLVKDYFPEPVTVSWNSGALTSGVHTFPAVLQSSGLYSLSSVVTVPSSSLGTKTYTCNVDHKPSNTKVDKRVESKYGPPCPPCPAPEFLGGPSVFLFPPKPKDTLYITREPEVTCVVVDVSQEDPEVQFNWYVDGVEVHNAKTKPREEQFNSTYRVVSVLTVLHQDWLNGKEYKCKVSNKGLPSSIEKTISKAKGQPREPQVYTLPPSQEEMTKNQVSLTCLVKGFYPSDIAVEWESNGQPENNYKTTPPVLDSDGSFFLYSRLTVDKSRWQEGNVFSCSVMHEALHNHYTQKSLSLSLG chain 2: DIQMTQSPSSLSASVGDRVTITCKASRDVAIAVAWYQQKPGKVPKLLIYWASTRHTGVPSRFSGSGSRTDFTLTISSLQPEDVADYFCHQYSSYPFTFGSGTKLEIKGGGSGGGGQVQLQQSGAEVKKPGSSVRVSCKASGGTFNNNAINWVRQAPGQGLEWMGGIIPMFGTAKYSQNFQGRVAITADESTGTASMELSSLRSEDTAVYYCARSRDLLLFPHHALSPWGRGTMVTVSSLGGGSGRTVAAPSVFIFPPSDEQLKSGTASVVCLLNNFYPREAKVQWKVDNALQSGNSQESVTEQDSKDSTYSLSSTLTLSKADYEKHKVYACEVTHQGLSSPVTKSFNRGEC | 0.106 | 0.361 | 1.55 | 6.84 | – | – | – | – | – | –
Control Antibody 1 (anti-BAFF monoclonal antibody) (BAFF (1)) (antibody, V domains shown) VH: QVQLQQSGAEVKKPGSSVRVSCKASGGTFNNNAINWVRQAPGQGLEWMGGIIPMFGTAKYSQNFQGRVAITADESTGTASMELSSLRSEDTAVYYCARSRDLLLFPHHALSPWGRGTMVTVSS VL: SSELTQDPAVSVALGQTVRVTCQGDSLRSYYASWYQQKPGQAPVLVIYGKNNRPSGIPDRFSGSSSGNTASLTITGAQAEDEADYYCSSRDSSGNHWVFGGGTELTVL | 0.232 | 0.743 | 24.1 | 180 | 0.288 | 0.635 | 0.273 | 0.576 | 0.553 | 10.1
Compound O (bispecific antibody, human IgG1, kappa, L234A L235A) chain 1: DIQMTQSPSSLSASVGDRVSITCKASQNAGIDVAWFQQKPGKAPKLLIYSKSNRYTGVPSRFSGSGSGTDFTLTISSLQPEDFADYYCLQYRSYPRTFGGGTKLEIKGGGSGGGGQVQLVQSGAEVKKPGSSVKVSCKASGYTFTDQTIHWMRQAPGQGLEWIGYIYPRDDSPKYNENFKGKVTITADKSTSTAYMELSSLRSEDTAVYYCAIPDRSGYAWFIYWGQGTLVTVSSLGGGSGASTKGPSVFPLAPSSKSTSGGTAALGCLVKDYFPEPVTVSWNSGALTSGVHTFPAVLQSSGLYSLSSVVTVPSSSLGTQTYICNVNHKPSNTKVDKRVEPKSCDKTHTCPPCPAPEAAGGPSVFLFPPKPKDTLYITREPEVTCVVVDVSHEDPEVKFNWYVDGVEVHNAKTKPREEQYNSTYRVVSVLTVLHQDWLNGKEYKCKVSNKALPAPIEKTISKAKGQPREPQVYTLPPSREEMTKNQVSLTCLVKGFYPSDIAVEWESNGQPENNYKTTPPVLDSDGSFFLYSKLTVDKSRWQQGNVFSCSVMHEALHNHYTQKSLSLSPG chain 2: DIQMTQSPSSLSASVGDRVTITCKASRDVAIAVAWYQQKPGKVPKLLIYWASTRHTGVPSRFSGSGSRTDFTLTISSLQPEDVADYFCHQYSSYPFTFGSGTKLEIKGGGSGGGGQVQLVQSGAEVKKPGASVKVSCKASGYSFSTFFIHWVRQRPGQGLEWIGRIDPNSGATKYNEKFESKVTLTRDTSISTAYMELSRLRSDDTAVYYCARGEDLLIRTDALDYWGQGTSVTVSSLGGGSGRTVAAPSVFIFPPSDEQLKSGTASVVCLLNNFYPREAKVQWKVDNALQSGNSQESVTEQDSKDSTYSLSSTLTLSKADYEKHKVYACEVTHQGLSSPVTKSFNRGEC | 0.027 | 0.119 | 0.005 | 0.006 | – | – | – | – | – | –
Compound P (bispecific antibody, human IgG4 S228P, kappa) chain 1: DIQMTQSPSSLSASVGDRVSITCKASQNAGIDVAWFQQKPGKAPKLLIYSKSNRYTGVPSRFSGSGSGTDFTLTISSLQPEDFADYYCLQYRSYPRTFGGGTKLEIKGGGSGGGGQVQLVQSGAEVKKPGSSVKVSCKASGYTFTDQTIHWMRQAPGQGLEWIGYIYPRDDSPKYNENFKGKVTITADKSTSTAYMELSSLRSEDTAVYYCAIPDRSGYAWFIYWGQGTLVTVSSLGGGSGASTKGPSVFPLAPCSRSTSESTAALGCLVKDYFPEPVTVSWNSGALTSGVHTFPAVLQSSGLYSLSSVVTVPSSSLGTKTYTCNVDHKPSNTKVDKRVESKYGPPCPPCPAPEFLGGPSVFLFPPKPKDTLYITREPEVTCVVVDVSQEDPEVQFNWYVDGVEVHNAKTKPREEQFNSTYRVVSVLTVLHQDWLNGKEYKCKVSNKGLPSSIEKTISKAKGQPREPQVYTLPPSQEEMTKNQVSLTCLVKGFYPSDIAVEWESNGQPENNYKTTPPVLDSDGSFFLYSRLTVDKSRWQEGNVFSCSVMHEALHNHYTQKSLSLSLG chain 2: DIQMTQSPSSLSASVGDRVTITCKASRDVAIAVAWYQQKPGKVPKLLIYWASTRHTGVPSRFSGSGSRTDFTLTISSLQPEDVADYFCHQYSSYPFTFGSGTKLEIKGGGSGGGGQVQLVQSGAEVKKPGASVKVSCKASGYSFSTFFIHWVRQRPGQGLEWIGRIDPNSGATKYNEKFESKVTLTRDTSISTAYMELSRLRSDDTAVYYCARGEDLLIRTDALDYWGQGTSVTVSSLGGGSGRTVAAPSVFIFPPSDEQLKSGTASVVCLLNNFYPREAKVQWKVDNALQSGNSQESVTEQDSKDSTYSLSSTLTLSKADYEKHKVYACEVTHQGLSSPVTKSFNRGEC | 0.019 | 0.088 | 0.002 | 0.009 | – | – | – | – | – | –
Compound R (bispecific antibody, human IgG4 S228P, kappa) chain 1: DIQMTQSPSSLSASVGDRVSITCKASQNAGIDVAWFQQKPGKAPKLLIYSKSNRYTGVPSRFSGSGSGTDFTLTISSLQPEDFATYYCLQYRSYPRTFGQGTKLEIKGGGSGGGGQVQLVQSGAEVKKPGSSVKVSCKASGYTFTDQTIHWMRQAPGQGLEWIGYIYPRDDSPKYNENFKGKVTITADKSTSTAYMELSSLRSEDTAVYYCAIPDRSGYAWFIYWGQGTLVTVSSLGGGSGASTKGPSVFPLAPCSRSTSESTAALGCLVKDYFPEPVTVSWNSGALTSGVHTFPAVLQSSGLYSLSSVVTVPSSSLGTKTYTCNVDHKPSNTKVDKRVESKYGPPCPPCPAPEFLGGPSVFLFPPKPKDTLYITREPEVTCVVVDVSQEDPEVQFNWYVDGVEVHNAKTKPREEQFNSTYRVVSVLTVLHQDWLNGKEYKCKVSNKGLPSSIEKTISKAKGQPREPQVYTLPPSQEEMTKNQVSLTCLVKGFYPSDIAVEWESNGQPENNYKTTPPVLDSDGSFFLYSRLTVDKSRWQEGNVFSCSVMHEALHNHYTQKSLSLSLG chain 2: DIQMTQSPSSLSASVGDRVTITCKASRDVAIAVAWYQQKPGKVPKLLIYWASTRHTGVPSRFSGSGSRTDFTLTISSLQPEDVADYFCHQYSSYPFTFGSGTKLEIKGGGSGGGGQVQLVQSGAEVKKPGASVKVSCKASGYSFSTFFIHWVRQAPGQGLEWIGRIDPNSGATKYNEKFESRVTMTRDTSISTAYMELSRLRSDDTAVYYCARGEDLLIRTDALDYWGQGTSVTVSSLGGGSGRTVAAPSVFIFPPSDEQLKSGTASVVCLLNNFYPREAKVQWKVDNALQSGNSQESVTEQDSKDSTYSLSSTLTLSKADYEKHKVYACEVTHQGLSSPVTKSFNRGEC | 0.03 | 0.139 | 0.005 | 0.016 | – | – | – | – | – | –
Compound Q (bispecific antibody, human IgG1, kappa, L234A L235A) chain 1: DIQMTQSPSSLSASVGDRVSITCKASQNAGIDVAWFQQKPGKAPKLLIYSKSNRYTGVPSRFSGSGSGTDFTLTISSLQPEDFATYYCLQYRSYPRTFGQGTKLEIKGGGSGGGGQVQLVQSGAEVKKPGSSVKVSCKASGYTFTDQTIHWMRQAPGQGLEWIGYIYPRDDSPKYNENFKGKVTITADKSTSTAYMELSSLRSEDTAVYYCAIPDRSGYAWFIYWGQGTLVTVSSLGGGSGASTKGPSVFPLAPSSKSTSGGTAALGCLVKDYFPEPVTVSWNSGALTSGVHTFPAVLQSSGLYSLSSVVTVPSSSLGTQTYICNVNHKPSNTKVDKRVEPKSCDKTHTCPPCPAPEAAGGPSVFLFPPKPKDTLYITREPEVTCVVVDVSHEDPEVKFNWYVDGVEVHNAKTKPREEQYNSTYRVVSVLTVLHQDWLNGKEYKCKVSNKALPAPIEKTISKAKGQPREPQVYTLPPSREEMTKNQVSLTCLVKGFYPSDIAVEWESNGQPENNYKTTPPVLDSDGSFFLYSKLTVDKSRWQQGNVFSCSVMHEALHNHYTQKSLSLSPG chain 2: DIQMTQSPSSLSASVGDRVTITCKASRDVAIAVAWYQQKPGKVPKLLIYWASTRHTGVPSRFSGSGSRTDFTLTISSLQPEDVADYFCHQYSSYPFTFGSGTKLEIKGGGSGGGGQVQLVQSGAEVKKPGASVKVSCKASGYSFSTFFIHWVRQAPGQGLEWIGRIDPNSGATKYNEKFESRVTMTRDTSISTAYMELSRLRSDDTAVYYCARGEDLLIRTDALDYWGQGTSVTVSSLGGGSGRTVAAPSVFIFPPSDEQLKSGTASVVCLLNNFYPREAKVQWKVDNALQSGNSQESVTEQDSKDSTYSLSSTLTLSKADYEKHKVYACEVTHQGLSSPVTKSFNRGEC | 0.026 | 0.108 | 0.005 | 0.013 | – | – | – | – | – | –
